Data on one molecule can be found in patent US20180147231A1, “METHOD FOR TREATMENT AND PROGNOSIS OF COLORECTAL CANCER” (Oxford University Innovation Limited, priority 2015, published 2018).

The test system of test [1] is DLD-1 KRAS MUT cells (heterozygous KRAS G13D). Kind of test: Phosflow analysis of intracellular signaling, DLD-1 KRAS MUT. Format: cell-based. To be noted: 30 min 10 ng/mL recombinant human IL-22. As for the experimental part: (§1) Therefore this isogenic pair differs only in KRAS mutation status and allows a clean system for comparison of KRAS-dependent IL-22 effects without inter-cell line mutational heterogeneity. (A) Representative FACS plots of IL-22RA1 expression and quantification of mean fluorescence intensity (WI) showing similar IL-22RA1 expression in the isogenic pair (4 experimental replicates). […] MTT was added 2 h prior to end of 48 h incubation. Formazan particles were dissolved in DMSO and absorbance was measured at 540 nm. Raw absorbances are blank corrected, normalized to a no treatment, and represented as a % viability compared to the no treatment condition. n=5 independent experiments with 3 experimental replicates. p values computed by non-parametric Mann-Whitney test comparing 5 FU alone to IL-22 pretreatment with 5 FU for each DLD-1 line.
Adherent Colo205, T84, SW480, and DLD-1 cells were dissociated using StemPro® Accutase® (Life Technologies), filtered through […] filters, and counted by Trypan Blue exclusion. 5×10^5 cells of each line were stained with 5 μL Human IL-22 R alpha 1 Phycoerythrin MAb (Clone 305405) (R&D Systems) or […] isotype rat anti-mouse IgG1 PE (BD Biosciences) and incubated for 30 minutes at room temperature. Cells were washed with PBS, 0.1% BSA, 2 mM EDTA and acquired on the BD LSRII. Analysis was performed using FlowJo (Tree Star) software. For analysis of intracellular signaling pathways by phosflow, DLD-1 isogenic cells were plated in 6 well plates (1.5 million cells/well) in serum free RPMI and allowed to adhere overnight. DLD-1 cells were then stimulated or not for 30 minutes with increasing doses of recombinant human IL-22 (0.001 ng/mL-100 ng/mL). Cells were dissociated with TrypLE, fixed for 10 min at 37° C. with BD Cytofix Fixation Buffer. Cells were then permeabilized in BD Phosflow Perm Buffer III for 30 min on ice. […]

The next test deals with DLD-1 KRAS MUT cells. Briefly: Chemotherapy killing assay (MTT), DLD-1 KRAS MUT. Format: cell-based, human. Particulars: 48 h pre-treatment with 10 ng/mL IL-22, then 50 μM 5-FU for 48 h. As for the experimental part:
as §1
Colo205, T84, SW480, and DLD-1 cells were seeded at a density of 1×10^4 cells/well in 48 well plates. Cells were pre-treated for 48 h with 10 ng/mL IL-22, then subjected to 50 μM oxaliplatin (Sigma) or 5-fluorouracil (Sigma) or vehicle control (DMSO) for 48 h. 50 μg Methylthiazolyldiphenyl-tetrazolium bromide (MTT) (Sigma) was added to each well 2 h prior to the end of incubation. […] Absorbance was measured at 540 nm on Spectrostar Nano plate reader (BMG Labtech).

Test [2] has as its system T84 cells (KRAS-mutant, IL22RA1 high). Kind of test: Chemotherapy killing assay (MTT), T84 cells. Format: cell-based, human. Particulars: 48 h pre-treatment with 10 ng/mL IL-22, then 50 μM oxaliplatin or 5-FU for 48 h. On the procedure: (A) MTT assay on Colo205, T84, and SW480 cells pre-treated or not pre-treated for 48 h with 10 ng/mL IL-22, then treated with 50 μM oxaliplatin or 5-FU for 48 h. MTT was added 2 h prior to end of 48 h incubation. Formazan particles were dissolved in DMSO and absorbance was measured at 540 nm. Raw absorbances are blank corrected, normalized to a no treatment or IL-22 only, and represented as a % reduction in viability compared to the no treatment or IL-22 only conditions. n=3 independent experiments with 3 experimental replicates, *p<0.05, ****p<0.0001, one-way ANOVA with Tukey's post test for multiple comparisons.
Colo205, T84, SW480, and DLD-1 cells were seeded at a density of 1×10^4 cells/well in 48 well plates. Cells were pre-treated for 48 h with 10 ng/mL IL-22, then subjected to 50 μM oxaliplatin (Sigma) or 5-fluorouracil (Sigma) or vehicle control (DMSO) for 48 h. 50 μg Methylthiazolyldiphenyl-tetrazolium bromide (MTT) (Sigma) was added to each well 2 h prior to the end of incubation. At the end of the 48 h incubation supernatants were aspirated and formazan particles were solubilized with DMSO and transferred to a fresh plate. Absorbance was measured at 540 nm on Spectrostar Nano plate reader (BMG Labtech).

In test [3] the test system is T84 CRC cells (KRAS-mutant, IL22RA1 high). Briefly: Primary sphere forming assay, T84 cells. Format: cell-based, human. Particulars: 10 ng/mL IL-22 pre-treatment 48 h, spheres cultured 6 days. On the procedure: (A) Schematic representation of primary sphere forming assay workflow. Cells were pre-treated with 10 ng/mL IL-22 for 48 hours, filtered to single cells and 1000 cells/well were seeded into 96 well low-binding plates in serum-free media containing 1% methylcellulose, 20 ng/mL EGF, 20 ng/mL bFGF with and without 10 ng/mL IL-22. Four experimental replicates were seeded for each condition. Cultured spheres from (B) Colo205, T84 and SW480 cell lines for 6 days. (C) Bright field microscopy images (4×) of single wells 6 days after seeding (1 experiment representative of 4). (D) MTT assay to assess viability of spheres 6 days after seeding (n=3). (E) Bright field microscopy of T84 spheres (20×) 6 days after seeding. (F) Quantification of spheres after 6 days of culture using ImageJ. Data represent mean+/−SD of 3 independent experiments, each with 3 technical replicates per condition. *p<0.05, one-way ANOVA with Dunnett's post test for multiple comparisons.
Colo205, T84, and SW480 cells were pretreated for 48 h in 48 well plates with 10 ng/mL IL-22 (R&D Systems). Cells were filtered to single cells using […] filter and 1000 cells/well were seeded into 96 well low binding plates (Corning) in 1% methylcellulose in IMDM (R&D Systems), 20 ng/mL recombinant EGF (Sigma), 20 ng/mL recombinant basic FGF (Peprotech), lx insulin-transferrin selenite (ITS) (Sigma) in serum-free DMEM. […]

B1: IL-22: recombinant human IL-22 (R&D Systems), IL-10 superfamily cytokine; human sequence SEQ ID NO: 5 (protein, listed as Homo sapiens)
chain: MAALQKSVSSFLMGTLATSCLLLLALLVQGGAAAPISSHCRLDKSNFQQPYITNRTFMLAKEASLADNNTDVRLIGEKLFHGVSMSERCYLMKQVLNFTLEEVLFPQSDRFQPYMQEVVPFLARLSNRLSTCHIEGDDLHIQRNVQKLKDTVKKLGESGEIKAIGELDLLFMSLRNACI
In the case of B1, in test [1], the “Phosphorylated ERK1/2” value is “not IL-22 inducible”, the “Phosphorylated S6” value is “IL-22 inducible phosphorylated S6” and the “Phosphorylated STAT3” value was “identical extent of phosphorylated STAT3”. Besides, in the test on DLD-1 KRAS MUT cells, the “Protection against 5-fluorouracil mediated cell death” value is “protects against 5 fluorouracil mediated cell death”. The “Protection against oxaliplatin and 5-fluorouracil mediated cell death” value in test [2] is “protects against oxaliplatin and 5 fluorouracil mediated cell death”. Besides, the “Clonogenic outgrowth (sphere formation)” value in test [3] is “enhances clonogenic outgrowth”.
